The target in the assay is yeast tubulin heterodimer, Tub1-WT (internal 6X-His) with Tub2 (S. cerevisiae (budding yeast), UniProt P09733 1-447; P02557 1-457). In words: pull-down.
yeast tubulin heterodimer, Tub1-WT (internal 6X-His) with Tub2, sequence (P09733 whole entry, chain 1 of 2): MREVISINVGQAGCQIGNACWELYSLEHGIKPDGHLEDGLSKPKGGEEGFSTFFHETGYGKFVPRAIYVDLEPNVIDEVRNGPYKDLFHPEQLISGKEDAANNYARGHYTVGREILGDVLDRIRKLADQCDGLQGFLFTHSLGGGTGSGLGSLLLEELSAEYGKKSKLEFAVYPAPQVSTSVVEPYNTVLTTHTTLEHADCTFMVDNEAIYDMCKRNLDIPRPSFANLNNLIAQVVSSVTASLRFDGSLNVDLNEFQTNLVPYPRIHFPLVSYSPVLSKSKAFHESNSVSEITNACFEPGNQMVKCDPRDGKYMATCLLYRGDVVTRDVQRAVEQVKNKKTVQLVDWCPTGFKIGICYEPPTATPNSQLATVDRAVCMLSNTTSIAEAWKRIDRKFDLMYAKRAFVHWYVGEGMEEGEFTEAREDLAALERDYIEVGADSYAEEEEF
yeast tubulin heterodimer, Tub1-WT (internal 6X-His) with Tub2, sequence (P02557 whole entry, chain 2 of 2): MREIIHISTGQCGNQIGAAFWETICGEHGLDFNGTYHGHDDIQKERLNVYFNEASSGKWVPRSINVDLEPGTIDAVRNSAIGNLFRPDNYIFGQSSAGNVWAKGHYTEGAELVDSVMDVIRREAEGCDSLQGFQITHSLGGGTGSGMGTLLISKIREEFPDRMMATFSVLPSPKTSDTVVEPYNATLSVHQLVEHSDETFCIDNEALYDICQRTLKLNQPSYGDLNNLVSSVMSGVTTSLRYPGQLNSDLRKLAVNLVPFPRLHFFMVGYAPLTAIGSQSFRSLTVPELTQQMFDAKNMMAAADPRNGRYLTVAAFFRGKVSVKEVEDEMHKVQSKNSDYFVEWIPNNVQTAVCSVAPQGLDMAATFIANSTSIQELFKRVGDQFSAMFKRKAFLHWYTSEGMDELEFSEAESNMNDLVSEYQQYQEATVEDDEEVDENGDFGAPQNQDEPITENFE

B1: GST-TOG1/2 (the two TOG domains of Stu2 fused to a GST tag; Stu2 1-590) (domain or fragment, S. cerevisiae (budding yeast), UniProt P46675 1-590, looked up)
chain: MSGEEEVDYTTLPLEERLTYKLWKARLEAYKELNQLFRNSVGDISRDDNIQIYWRDPTLFAQYITDSNVVAQEQAIVALNSLIDAFASSSLKNAHNITLISTWTPLLVEKGLTSSRATTKTQSMSCILSLCGLDTSITQSVELVIPFFEKKLPKLIAAAANCVYELMAAFGLTNVNVQTFLPELLKHVPQLAGHGDRNVRSQTMNLIVEIYKVTGNNSDLLEEILFKKLKPIQVKDLHKLFAKVGDEPSSSKMLFEWEKRELEKKRSQEEEARKRKSILSNDEGEYQIDKDGDTLMGMETDMPPSKQQSGVQIDTFSMLPEETILDKLPKDFQERITSSKWKDRVEALEEFWDSVLSQTKKLKSTSQNYSNLLGIYGHIIQKDANIQAVALAAQSVELICDKLKTPGFSKDYVSLVFTPLLDRTKEKKPSVIEAIRKALLTICKYYDPLASSGRNEDMLKDILEHMKHKTPQIRMECTQLFNASMKEEKDGYSTLQRYLKDEVVPIVIQIVNDTQPAIRTIGFESFAILIKIFGMNTFVKTLEHLDNLKRKKIEETVKTLPNFSIASGSTHSTIETNKQTGPMENKFLLK
On to B1, for which the binding result was “binds”.

The values above are taken from article doi:10.1101/2021.12.06.471490 (bioRxiv, 2021).
